Tested on: β-gal background activity
Assay: First and second round library screening (L1, L2) for induction by sulfonylurea ligands
Format: cell-based
Settings: initial screen, library L1, data not shown
Excerpt: The original library was designed to thifensulfuron, but once induction activity was established with other SU compounds having potentially better soil and in planta stability properties than the original ligand, the evolution process was re-directed towards these alternative ligands. Of particular interest were herbicides metsulfuron, sulfometuron, ethametsulfuron and chlorsulfuron. For this objective, parental clones L1-9, -22, -29 and -44 were chosen for further shuffling. Clone L1-9 has strong activity on both ethametsulfuron and chlorsulfuron; clone L1-22 has strong sulfometuron activity; clone L1-29 has moderate metsulfuron activity; and clone L1-44 has moderate activity on metsulfuron, ethametsulfuron and chlorsulfuron. (Data not shown.). No clones found in the initial screen were exceptionally reactive to metsulfuron. These four clones were also chosen due to their relatively strong repressor activity, showing low β-gal background activity without inducer. Strong repressor activity is important for establishing a system which is both highly sensitive to the presence of inducer, and tightly off in the absence of inducer.
Based on the sequence information from parental clones L1-9, -22, -29 and -44, two second round libraries were designed, constructed and screened. The first library, L2, consisted of a ‘family’ shuffle whereby the amino acid diversity between the selected parental clones was varied using synthetic assembly of oligonucleotides to find clones improved in responsiveness to any of the four new target ligands.
The L2 oligonucleotides were assembled, cloned and screened as per the protocol described for library L1 except that each ligand was tested at 2 ppm to increase the stringency of the assay, which is a 10-fold reduction from 1st round library screening concentration.

B1: L1-44: first round library L1 sulfonylurea repressor parental clone (protein)
chain: MGSRLDKSKVINSALELLNEVGIEGLTTRKLAQKLGVEQPTLYWHVKNKRALLDALAIEMLDRHATHFCPLEGESWQDFLRNNAKSYRCALLSHRDGAKVYLGTAVTEKQYETAENQLAFLCQQGFSLENALYAVKAVAGFTLGCVLWDQESQVAKEERETPTTASMPPLLRQAVELADHQGAEPAFLFGLELIICGLEKQLKCESGS
modifications: Sulfonylurea responsive repressor
notes: first round library L1 sulfonylurea repressor parental clone
moderate: activity on chlorsulfuron | activity on ethametsulfuron | metsulfuron activity

Reference: patent US20160326540A1, “Methods and Compositions Employing a Sulfonylurea-Dependent Stabilization Domain” (PIONEER HI-BRED INTERNATIONAL, INC., priority 2013, published 2016)
